The record followed here is article PMC6800183 (Journal of biological inorganic chemistry : JBIC : a …, 2019).

Substitutions are numbered along the chain they refer to. Names and notes keep the numbering of the source.

The target in assay [1] is T1, [2Fe-2S]-Grx3-Bol2 heterodimer (Saccharomyces cerevisiae, UniProt P53082+Q03835).
T1 sequence (Q03835 1-250): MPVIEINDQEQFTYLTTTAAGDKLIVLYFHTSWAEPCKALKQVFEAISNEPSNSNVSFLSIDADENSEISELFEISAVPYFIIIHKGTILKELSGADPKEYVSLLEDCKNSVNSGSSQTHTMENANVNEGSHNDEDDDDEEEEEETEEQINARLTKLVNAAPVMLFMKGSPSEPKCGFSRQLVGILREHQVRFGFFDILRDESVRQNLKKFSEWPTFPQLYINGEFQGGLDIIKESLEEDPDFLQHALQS
T1 sequence (P53082 1-120): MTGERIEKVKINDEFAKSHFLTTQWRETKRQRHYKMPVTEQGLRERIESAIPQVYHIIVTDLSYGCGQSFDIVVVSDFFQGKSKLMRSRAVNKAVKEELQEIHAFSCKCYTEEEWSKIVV
Put plainly: Bradford, iron and acid-labile sulfide analysis. The format is binding. The following applies: cluster bridges Grx3 and Bol2; pH 8.0, 1 mM GSH, anaerobic.

In assay [2] the target is T2, Grx3 (S. cerevisiae, UniProt Q03835 1-250).
T2 sequence (looked up): T1 sequence (Q03835 1-250)
Put plainly: SEC.

Assay [3] deals with T3, [2Fe-2S]-Grx3-Bol2 heterodimer (S. cerevisiae, UniProt Q03835 1-250; P53082 1-120).
T3 sequence (looked up) 1: T1 sequence (Q03835 1-250)
T3 sequence (looked up) 2: T1 sequence (P53082 1-120)
Put plainly: heparin chromatography co-elution.

[2Fe-2S] cluster: in assay [1], the “[2Fe-2S] cluster per heterodimer” value is given as 0.9–1.05 per heterodimer.

B1: Bol2 (natural protein, S. cerevisiae, UniProt P53082 1-120, looked up)
chain: T1 sequence (P53082 1-120)
As to B1, the binding result in assay [2] is given as “binds”.

B2: Aft2(1–204) C187A (domain or fragment, S. cerevisiae, UniProt Q08957 1-204, looked up)
chain: MKAKSMKSIISVPISVSKTGKMKLTASPDNLASMMSKDQNKLIHLDPVPSFEDRHEIKPWLQKIFYPQGIDIVIERSDSSKVTFKCRSVRSKVGLNPKSKGSSSRSHACPFRIRAAYSVRLQKWNVVVMNNIHSHELRFDLITKTDDYKKFKENLRQKNDEKAIKTFDELEYKASLNLPLVTPIISADCGLTKEIEAFNNIFLP
Regarding B2, the binding result in assay [3] is “binds”.

B3: Aft2(1–204) C189A (domain or fragment, S. cerevisiae, UniProt Q08957 1-204, looked up)
chain: B2 chain with A187C, C189A
As for B3, in assay [3], the binding result is reported as “binds”.
